B1: M15-YTE (antibody, V domains shown)
VH: QVQLLESGGGLVQPGGSLRLSCAASGFTFSSYAMSWVRQAPGKGLEWASAISGSGGSTYYADSVEGRFTISRDNSKNTLYLQMNSLRAEDTAVYYCAKDTGYCGDDCYIKLIRGGPDYWGQGTLVTVSS
VL: DIVMTQSPLSLPVTLGQPASISCRSSQSLVYSDGNTFLNWFQQRPGQSPRRLIYQVSNRDSGVPDRFSGSGSGTDFTLKISRVEAEDVGVYYCMQGTHWPRTFGQGTKLEIK
B2: S15-YTE (Fc fusion)
VH: B1 VH
VL: B1 VL
B3: M15-HDEL (antibody, V domains shown)
VH: B1 VH
VL: B1 VL
B4: S15-HDEL (Fc fusion)
VH: B1 VH
VL: B1 VL
B5: M15-FX (antibody, V domains shown)
VH: B1 VH
VL: B1 VL
B6: S15-FX (Fc fusion)
VH: B1 VH
VL: B1 VL
B7: M15 (plant-produced COVA2-15, conventional IgG1) (antibody, V domains shown)
VH: B1 VH
VL: B1 VL
B8: S15 (plant-produced COVA2-15, single-chain (sc)Fv-Fc format) (Fc fusion, human)
VH: B1 VH
VL: B1 VL

The binders below were run against T1, SARS-CoV-2 Spike Wuhan (recombinant) (SARS-CoV-2, Wuhan-Hu-1, UniProt P0DTC2) (assay: ELISA; plates coated with 2 μg/mL SARS-CoV-2 Spike Wuhan in PBS; antibodies from 5 nM, 10-fold serial dilutions in PBS/0.5% BSA, 1 h RT; detected with goat anti-human IgG (H + L) peroxidase). Conditions: both partners purified.
T1 construct: also called recombinant SARS-CoV-2 Spike

Row | Binder | binding result
1 | B1 | binds
2 | B2 | binds
3 | B3 | binds
4 | B4 | binds
5 | B5 | binds
6 | B6 | binds
7 | B7 | binds
8 | B8 | binds

Reference: PMC11672753 (Plant Biotechnology Journal, 2024)
